This is an account of results in the Immune Epitope Database (IEDB).

In the first assay the target is HLA-B*54:01. Nature of the assay: IEDB peptide-MHC binding, purified MHC/competitive/radioactivity; ≥ and ≤ were set here for values at or beyond the usual limits of such assays. The conditions noted are these: source organism: Homo sapiens.
Consider FPKETFEGP, for which the IC50 came to 16.4 nM.

Turning to FVEILIPVA, the IC50 is 12.2 nM.

SAPVNFISA: the IC50 came to 16.6 nM.

With YPVYQPVGP, the IC50 came out at 1.7 nM.

Another assay concerns the target HLA-A*01:01. Described as above. As to conditions: source organism: Homo sapiens.
With KLDLLEQEY, the IC50 was 70.6 nM.

Turning to DTEFPNFKY, the IC50 amounted to 80.8 nM.

As to ATDGKVLLW, the half-inhibitory concentration (IC50) stood at 191 nM.

For FLWPEAFLY, the IC50 is 1.3 nM.

On to YVPEHWEYY, for which the half-inhibitory concentration (IC50) turned out to be 11.1 nM.

In the next assay the target is HLA-B*51:01. The description is as above. As to conditions: source organism: Homo sapiens.
Consider VPPLVPKVL, for which the IC50 amounted to 56.3 nM.

As for YIIEREPLI, the IC50 is 1790 nM.

With TPESKIRFV, the IC50 is 84.8 nM.

Consider DGYVVKETI, for which the IC50 was determined as 13.4 nM.

On to VALLVGEKV, for which the IC50 amounted to 144 nM.

As for DGLLRVLTV, the IC50 was determined as 0.2 nM.

Turning to DAPLNIRSI, the 50% inhibitory concentration (IC50) came out at 6.5 nM.

For the sequence DGLRDLPSI, the IC50 amounted to 12.6 nM.

On to DAYPQRIKF, for which the IC50 worked out at 31 nM.

With IIYPTPKVV, the IC50 was 38 nM.

A further assay has as its target HLA-A*29:02. The description is as above. The conditions noted are these: source organism: Homo sapiens.
For LPLDIQIFY, the IC50 turned out to be 4.6 nM.

With GLPDLVAKY, the IC50 is 29.7 nM.

As for HFLDRHLVF, the IC50 was 1.6 nM.

As to YLPALKVEY, the IC50 is 2.6 nM.

Turning to FYPELKLAY, the IC50 worked out at 0.2 nM.

As a reminder, the IC50 is the midpoint of a concentration-inhibition curve.
